Holding throughout (conditions): protein: recombinant;recombinant;recombinant; tags: C-terminal TEV-cleavable double-StrepTactin tag (cleaved);;; chain copies: 2;1;1; blunt (annealed; only one strand given)
For data set [1], the target named is Cep3 deltaGal4;Ctf13;Skp1 (wild type) (Saccharomyces cerevisiae;Saccharomyces …, UniProt P40969;P35203;P52286 47-608;1-478;1-194, ||). The experiment in a line: EMSA; lambda phosphatase, 1 mM MnCl2; 0.3-1 uM protein; EMSA: complex (final buffer 10 mM HEPES, 300 mM NaCl, 1 mM DTT) mixed with DNA, 200 units lambda phosphatase and 1 mM MnCl2, 30 C 30 min, 0.8% agarose gel in TBE; binding pH not stated.

Data set [2] addresses Cep3 (wild type, core complex);Ctf13;Skp1delta (Saccharomyces cerevisiae;Saccharomyces …, UniProt P40969;P35203;P52286 1-608;1-478;1-194, ||del37-64). Nature of the data set: EMSA; no lambda phosphatase; 1 uM protein, 0.1 uM DNA; EMSA: complex (final buffer 10 mM HEPES, 300 mM NaCl, 1 mM DTT) mixed with DNA, 200 units lambda phosphatase and 1 mM MnCl2, 30 C 30 min, 0.8% agarose gel in TBE; binding pH not stated.

For data set [3], the target named is T1, Cep3 (wild type, core complex);Ctf13;Skp1 (wild type) (Saccharomyces cerevisiae;Saccharomyces …, UniProt P40969;P35203;P52286 1-608;1-478;1-194, ||). Nature of the data set: EMSA; lambda phosphatase, 1 mM MnCl2; 0.3-1 uM protein, 0.1 uM DNA; EMSA: complex (final buffer 10 mM HEPES, 300 mM NaCl, 1 mM DTT) mixed with DNA, 200 units lambda phosphatase and 1 mM MnCl2, 30 C 30 min, 0.8% agarose gel in TBE; binding pH not stated.

For data set [4], the target named is T1, Cep3 (wild type, core …). The experiment in a line: competition; EMSA, competitor 0.4-1.2 uM vs 0.1 uM N2; EMSA: complex (final buffer 10 mM HEPES, 300 mM NaCl, 1 mM DTT) mixed with DNA, 200 units lambda phosphatase and 1 mM MnCl2, 30 C 30 min, 0.8% agarose gel in TBE; binding pH not stated.
Data set [5] has as its target T1, Cep3 (wild type, core …). The experiment in a line: competition; EMSA, competitor 0.4-1.2 uM vs 0.1 uM N2; same effect as CCG mutant; EMSA: complex (final buffer 10 mM HEPES, 300 mM NaCl, 1 mM DTT) mixed with DNA, 200 units lambda phosphatase and 1 mM MnCl2, 30 C 30 min, 0.8% agarose gel in TBE; binding pH not stated.

T1 sequence (P40969 whole entry, chain 1 of 3): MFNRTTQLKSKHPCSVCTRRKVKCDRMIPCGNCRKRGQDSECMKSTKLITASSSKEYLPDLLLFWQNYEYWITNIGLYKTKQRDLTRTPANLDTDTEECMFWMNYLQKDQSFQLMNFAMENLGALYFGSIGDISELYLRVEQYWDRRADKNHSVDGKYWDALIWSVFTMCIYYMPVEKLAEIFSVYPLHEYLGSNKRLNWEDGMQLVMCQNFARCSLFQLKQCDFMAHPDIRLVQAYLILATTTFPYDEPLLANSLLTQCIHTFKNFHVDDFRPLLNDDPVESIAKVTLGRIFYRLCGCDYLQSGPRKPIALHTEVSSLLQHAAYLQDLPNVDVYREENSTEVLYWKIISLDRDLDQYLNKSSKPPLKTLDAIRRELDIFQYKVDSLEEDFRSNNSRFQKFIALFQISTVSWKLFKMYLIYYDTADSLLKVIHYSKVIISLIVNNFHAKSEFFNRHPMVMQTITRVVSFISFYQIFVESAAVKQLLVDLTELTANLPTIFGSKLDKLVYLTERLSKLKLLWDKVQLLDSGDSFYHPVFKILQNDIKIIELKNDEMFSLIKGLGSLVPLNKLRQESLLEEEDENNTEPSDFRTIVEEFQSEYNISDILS
T1 sequence (P35203 whole entry, chain 2 of 3): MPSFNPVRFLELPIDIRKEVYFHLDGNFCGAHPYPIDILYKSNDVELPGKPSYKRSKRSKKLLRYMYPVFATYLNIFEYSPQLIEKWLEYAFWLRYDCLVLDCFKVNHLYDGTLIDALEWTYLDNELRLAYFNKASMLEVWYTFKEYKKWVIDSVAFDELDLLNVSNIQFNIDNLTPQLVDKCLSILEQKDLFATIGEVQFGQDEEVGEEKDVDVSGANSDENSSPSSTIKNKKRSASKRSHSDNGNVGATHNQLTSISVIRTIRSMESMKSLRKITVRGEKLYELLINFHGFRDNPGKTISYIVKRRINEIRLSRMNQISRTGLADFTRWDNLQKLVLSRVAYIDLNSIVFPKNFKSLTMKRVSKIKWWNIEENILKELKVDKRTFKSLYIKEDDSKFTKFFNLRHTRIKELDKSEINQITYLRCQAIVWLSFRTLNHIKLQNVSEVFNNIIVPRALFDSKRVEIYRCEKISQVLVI
T1 sequence (P52286 whole entry, chain 3 of 3): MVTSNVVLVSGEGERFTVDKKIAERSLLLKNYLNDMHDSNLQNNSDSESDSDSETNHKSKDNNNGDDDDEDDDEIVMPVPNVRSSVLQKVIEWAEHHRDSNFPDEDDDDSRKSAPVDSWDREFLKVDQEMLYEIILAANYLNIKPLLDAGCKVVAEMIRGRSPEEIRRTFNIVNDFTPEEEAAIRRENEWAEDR
Chain of Cep3 deltaGal4;Ctf13;Skp1 (wild type) (P40969 47-608, stated change not applied, chain 1 of 3): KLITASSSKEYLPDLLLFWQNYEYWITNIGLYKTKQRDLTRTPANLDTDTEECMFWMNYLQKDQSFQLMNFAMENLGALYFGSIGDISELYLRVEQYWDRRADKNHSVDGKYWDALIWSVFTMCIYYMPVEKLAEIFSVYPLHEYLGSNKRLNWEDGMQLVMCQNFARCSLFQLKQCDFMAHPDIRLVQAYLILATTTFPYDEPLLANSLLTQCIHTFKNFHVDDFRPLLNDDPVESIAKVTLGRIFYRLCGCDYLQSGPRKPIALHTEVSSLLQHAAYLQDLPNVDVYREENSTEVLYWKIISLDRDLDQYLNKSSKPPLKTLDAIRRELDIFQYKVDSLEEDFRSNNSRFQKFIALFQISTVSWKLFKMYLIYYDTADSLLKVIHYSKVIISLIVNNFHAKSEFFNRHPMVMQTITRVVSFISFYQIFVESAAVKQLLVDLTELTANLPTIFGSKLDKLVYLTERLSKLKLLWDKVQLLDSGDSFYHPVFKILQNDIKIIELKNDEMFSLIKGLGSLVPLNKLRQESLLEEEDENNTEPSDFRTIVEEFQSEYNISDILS
Chain of Cep3 deltaGal4;Ctf13;Skp1 (wild type) (P35203 whole entry, stated change not applied, chain 2 of 3, the tested form may be a part): as the sequence (P35203 whole entry, chain 2 of 3) above
Chain of Cep3 deltaGal4;Ctf13;Skp1 (wild type) (P52286 whole entry, stated change not applied, chain 3 of 3, the tested form may be a part): as the sequence (P52286 whole entry, chain 3 of 3) above
Chain of Cep3 (wild type, core complex);Ctf13;Skp1delta (P40969 whole entry, stated change not applied, chain 1 of 3): as the sequence (P40969 whole entry, chain 1 of 3) above
Chain of Cep3 (wild type, core complex);Ctf13;Skp1delta (P35203 whole entry, stated change not applied, chain 2 of 3): as the sequence (P35203 whole entry, chain 2 of 3) above
Chain of Cep3 (wild type, core complex);Ctf13;Skp1delta (P52286 other isoform, or with tags, fused parts or gaps ||del37-64 | mutant, chain 3 of 3): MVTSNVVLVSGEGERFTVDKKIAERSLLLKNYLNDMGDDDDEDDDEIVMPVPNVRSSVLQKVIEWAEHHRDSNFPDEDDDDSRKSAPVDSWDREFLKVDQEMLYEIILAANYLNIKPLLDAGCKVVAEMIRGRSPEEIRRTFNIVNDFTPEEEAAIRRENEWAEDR

B1: 56 bp WT CEN3 (dsDNA)
DNA 1: TATTAGTGTATTTGATTTCCGAAAGTTAAAAAAGAAATAGTAAGAAATATATATTT
DNA 2: AAATATATATTTCTTACTATTTCTTTTTTAACTTTCGGAAATCAAATACACTAATA
B1: the binding result is “no binding” in data set [1]; “binds” in the data set with Cep3 (wild type, core …) [2]; “binds” with Cep3 (wild type, core …) [3].

B2: 33 bp wild-type CEN3, unlabelled competitor (dsDNA)
DNA 1: AAATATTAGTGTATTTGATTTCCGAAAGTTAAA
DNA 2: TTTAACTTTCGGAAATCAAATACACTAATATTT
Turning to B2, the binding result with Cep3 (wild type, core …) [4] is reported as “binds”.

B3: 33 bp CCG mutant CEN3 (dsDNA)
DNA 1: AAATATTAGTGTATTTGATTTGATAAAGTTAAA
DNA 2: TTTAACTTTATCAAATCAAATACACTAATATTT
Turning to B3, the binding result with Cep3 (wild type, core …) [4] is reported as “no binding”.

B4: 33 bp double mutant CEN3 (dsDNA)
DNA 1: AAATATTAGAACATTTGATTTGATAAAGTTAAA
DNA 2: TTTAACTTTATCAAATCAAATGTTCTAATATTT
Take B4: the binding result in the data set with Cep3 (wild type, core …) [5] was “no binding”.

The record behind these values is article PMC5771398, “Structural basis for assembly of the CBF3 kinetochore complex” (The EMBO Journal, 2017).
